For one data set, the system named is threonine. The data set is described as follows: Production of L-homoalanine from glucose by E. coli overexpressing GDH2 and threonine dehydratases. Type of data set: cell-based, Escherichia coli. Conditions: ATCC98082, overexpressed in combination with GDH2. An excerpt:
FIG. 5A is a graph with horizontal axis labels defined as follows: (1) BW25113; (2) BW25113 with overexpression of GDH2; (3) ATCC98082 with overexpression of TdcB & GDH2; (4) ATCC98082 with overexpression of IlvAEc & GDH2; (5) ATCC98082 with overexpression of IlvABS & GDH2; and (6) ATCC98082 (ArhtA) with overexpression of IlvABS and GDH2. FIG. 5B is a graph showing the yield of L-homolalanine biosynthesis from glucose. The error bars represent standard deviations from three independent experiments.
To test the production of L-homoalanine from glucose, E. coli strain ATCC98082 harboring plasmid pZS_thrO (see, e.g. Zhang et al. (2008) Proc Natl Acad Sci USA 105(52):20653-20658) was transformed with pZElac_tdcB_GDH, pZElac_ilvAEC_GDH and pZElac_ilvABS_GDH. These transformants were subjected to fermentation using the following production medium: 30 g glucose, 17 g (NH4)2SO4, 2 g KH2PO4, 1 g MgSO4.7H2O, 2 g yeast extract, 0.1 g L-valine, 0.01 g FeSO4:7H2O and 0.01 g MnSO4:7H2O per liter. Antibiotics were added appropriately (ampicillin 50 mg/L, spectinomycin 25 mg/L). Overnight 2XYT culture were diluted 25× into fermentation medium and 0.1 mM isopropyl-b-D-thiogalactoside (IPTG) was added to induce protein expression. In shake flask experiments, the culture medium was buffered by addition of 30 g/L CaCO3. Cultures were incubated in 33° C. shaker (250 rpm) for 40-50 h until glucose was consumed.

In a further data set the test system is 2-ketobutyrate. Briefly: Conversion of fed 2-ketobutyrate to L-homoalanine by E. coli BW25113 overexpressing amination enzymes. Type of data set: cell-based, Escherichia coli. Also on record: L-homoalanine produced: unit not given here. Conditions: for L-homoalanine produced: 10 g/L 2-ketobutyrate fed, M9 medium, 37° C., 24 h. The protocol: FIG. 2 is a graph comparing different amination enzymes on the production of L-homoalanine. E. coli cultures were inoculated in M9 medium with addition of 10 g/L 2-ketobutyrate and incubated at 37° C. for 24 h. The horizontal axis labels are defined as follows: (A) Wild-type E. coli BW25113; overexpression of (B) transaminase IlvE (C) valine dehydrogenase from Streptomyces avermitilis; (D) valine dehydrogenase from Streptomyces coelicolor, (E) valine dehydrogenase from Streptomyces fradiae; (F) evolved glutamate dehydrogenase GDH1; and (G) evolved glutamate dehydrogenase GDH2. The error bars represent standard deviations from three independent experiments.
In order to check if any endogenous transaminase of E. coli can work on 2-ketobutyrate, we fed 10 g/L 2-ketobutyrate to wildtype E. coli strain BW25113 growing in M9 medium. […] Since the branched-chain amino acid aminotransferase IlvE (see, e.g. Inoue K, et al. (1988) J Biochem 104(5):777-784) is likely to be a functional candidate, we cloned and overexpressed IlvE in BW25113, which increased the production of L-homoalanine to […] (FIG. 2B). […] However, high concentration of glutamate is needed to drive the reaction equilibrium because transamination is a reversible reaction process. Even under such extreme conditions, the conversion rate of transaminating 2-ketobutyrate to L-homoalanine is only 32%.
To test the conversion of 2-ketobutyrate to L-homoalanine, plasmids pZElac_IlvE, pZElac_VDHsa, pZElac_VDHsc, pZElac_VDHsf, pZElac_GDH and pZElac_GDH2 were transformed into BW25113. The transformants were inoculated in M9 medium with 5 g/L yeast extract, 10 g/L ammonium hydrochloride and 20 g/L glucose. Once OD reached ˜1.0, 10 g/L 2-ketobutyrate plus 0.1 mM IPTG were added and incubated at 37° C. for 24 h. Amino acids were quantified as o-phthaldialdehyde (OPA) derivatives by HPLC analysis.

Data set [1] is described as follows: Enzymatic assay of purified glutamate dehydrogenases, amination of 2-ketobutyrate (NADPH consumption at 340 nm). Type of data set: biochemical. Conditions: 100 mM Tris pH 8.0, 0.2M NH4Cl, 0.2 mM NADPH. The protocol:
To characterize the enzymes, both the wild-type glutamate dehydrogenase GDHwt and mutant GDH2 were added an N-terminal 6×His-tag, overexpressed, and purified through Ni-NTA columns. The kinetic parameters for […] of 2-ketoglutarate (cognate substrate) and 2-ketoisovalerate or 2-ketobutyrate (nonnatural substrates) were determined by monitoring the consumption of NADPH at 340 nm (FIG. 6). […] The increase in binding affinity is very helpful since high concentration of 2-ketobutyrate interferes with cellular metabolic activities (see, e.g. Daniel et al. (1983) Mol Gen Genet 190(3):452-458). On the basis of the crystallographic model for the active site of GDH, amino group of K92 hydrogenbonds to the γ-carboxyl group of 2-ketoglutarate and determines the substrate specificity (see, e.g. Stillman et al. (1993) J Mol Biol 234(4):1131-1139). Mutation of lysine to valine increases the hydrophobic character of the binding pocket, which explains why the specificity constant kcat/Km of GDH2 towards 2-ketobutyrate is 50-fold higher than that towards the natural substrate 2-ketoglutarate.
Both gene fragments encoding wildtype glutamate dehydrogenase and GDH2 were amplified using primers GDHbamfwd and GDHbamrev. After digestion with BamHI, the gene fragments were inserted into expression plasmid pQE9 (Qiagen). The resulting expression plasmids were transformed into E. coli strain BL21(DE3) harboring pREP4 (Qiagen). Cells were inoculated from an overnight preculture at 1/100 dilution and grown in 200 mL 2XYT rich medium containing 50 mg/L ampicillin and 25 mg/L kanamycin. At an OD600 of 0.6, recombinant proteins were expressed by induction of the cell cultures with 0.1 mM IPTG, followed by incubation at 30° C. overnight. Overexpressed proteins were then purified with Ni-nitrilotriacetic acid columns. Protein concentration was determined by measuring UV absorbance at 280 nm.
Enzymatic assay was performed in assay buffer (100 mM Tris buffer, pH 8.0) containing 0.2M NH4Cl, 0.2 mM NADPH, and various concentrations of 2-ketoacids. The reactions were started by adding the purified enzymes, and the consumption of NADPH was monitored at 340 nm (extinction coefficient, 6.22 mM^−1 cm^−1). Kinetic parameters (kcat and Km) were determined by fitting initial velocity data to the Michaelis-Menten equation using Origin.

B1: TdcB: catabolic threonine dehydratase of E. coli (protein, listed as Escherichia coli)
chain: MHITYDLPVAIDDIIEAKQRLAGRIYKTGMPRSNYFSERCKGEIFLKFENMQRTGSFKIRGAFNKLSSLTDAEKRKGVVACSAGNHAQGVSLSCAMLGIDGKVVMPKGAPKSKVAATCDYSAEVVLHGDNFNDTIAKVSEIVEMEGRIFIPPYDDPKVIAGQGTIGLEIMEDLYDVDNVIVPIGGGGLIAGIAVAIKSINPTIRVIGVQSENVHGMAASFHSGEITTHRTTGTLADGCDVSRPGNLTYEIVRELVDDIVLVSEDEIRNSMIALIQRNKVVTEGAGALACAALLSGKLDQYIQNRKTVSIISGGNIDLSRVSQITGFVDA
Take B1: in the data set on threonine, the “L-homoalanine produced from glucose” value turned out to be 0.18 g/L, the glutamate accumulated stood at 4 g/L and the “threonine remaining in fermentation medium” value amounted to 3.7 g/L.

B2: IlvABS: biosynthetic threonine dehydratase IlvA from Bacillus subtilis (protein, listed as Bacillus subtilis)
chain: MKPLLKENSLIQVKDILKAHQNVKDVVIHTPLQRNDRLSERYECNIYLKREDLQVVRSFKLRGAYHKMKQLSSEQTENGVVCASAGNHAQGVAFSCKHLGIHGKIFMPSTTPRQKVSQVELFGKGFIDIILTGDTFDDAYKSAAECCEAESRTFIHPFDDPDVMAGQGTLAVEILNDIDTEPHFLFASVGGGGLLSGVGTYLKNVSPDTKVIAVEPAGAASYFESNKAGHVVTLDKIDKFVDGAAVKKIGEETFRTLETVVDDILLVPEGKVCTSILELYNECAVVAEPAGALSVAALDLYKDQIKGKNVVCVVSGGNNDIGRMQEMKERSLIFEGLQHYFIVNFPQRAGALREFLDEVLGPNDDITRFEYTKKNNKSNGPALVGIELQNKADYGPLIERMNKKPFHYVEVNKDEDLFHLLI
B2: in the data set on threonine, the “L-homoalanine produced from glucose” value stood at 3.8 g/L and the “threonine remaining in fermentation medium” value came out at 2.5 g/L.

B3: GDH1 (protein, UniProt P07262 2-454, looked up)
NADP-specific glutamate …: SEPEFQQAYEEVVSSLEDSTLFEQHPEYRKVLPIVSVPERIIQFRVTWENDKGEQEVAQGYRVQYNSAKGPYKGGLRFHPSVNLSILKFLGFEQIFKNSLTGLDMGGGKGGLCVDLKGRSNNEIRRICYAFMRELSRHIGQDTDVPAGDIGVGGREIGYLFGAYRSYKNSWEGVLTGKGLNWGGSLIRPEATGYGLVYYTQAMIDYATNGKESFEGKRVTISGSGNVAQYAALKVIELGGTVVSLSDSKGCIISETGITSEQVADISSAKVNFKSLEQIVNEYSTFSENKVQYIAGARPWTHVQKVDIALPCATQNEVSGEEAKALVAQGVKFIAEGSNMGSTPEAIAVFETARSTATGPSEAVWYGPPKAANLGGVAVSGLEMAQNSQRITWTSERVDQELKRIMINCFNECIDYAKKYTKDGKVLPSLVKGANIASFIKVSDAMFDQGDVF
As to B3, in the data set with 2-ketobutyrate (BW25113 transformant), the L-homoalanine produced was determined as 1.6.

B4: IlvE: branched-chain amino acid aminotransferase of E. coli (protein, UniProt P0AB80 2-309, looked up)
Branched-chain-amino-acid …: TTKKADYIWFNGEMVRWEDAKVHVMSHALHYGTSVFEGIRCYDSHKGPVVFRHREHMQRLHDSAKIYRFPVSQSIDELMEACRDVIRKNNLTSAYIRPLIFVGDVGMGVNPPAGYSTDVIIAAFPWGAYLGAEALEQGIDAMVSSWNRAAPNTIPTAAKAGGNYLSSLLVGSEARRHGYQEGIALDVNGYISEGAGENLFEVKDGVLFTPPFTSSALPGITRDAIIKLAKELGIEVREQVLSRESLYLADEVFMSGTAAEITPVRSVDGIQVGEGRCGPVTKRIQQAFFGLFTGETEDKWGWLDQVNQ
Turning to B4, the L-homoalanine produced in the data set with 2-ketobutyrate (BW25113 transformant) came to 1.2. For the same molecule, the L-homoalanine titer with 2-ketobutyrate (BW25113 transformant, 10 g/L 2-ketobutyrate plus additional 10 g/L glutamate) worked out at 3.2 g/L. Moreover, the “conversion rate of 2-ketobutyrate to L-homoalanine” value in the data set on 2-ketobutyrate (with 10 g/L glutamate as amino donor) worked out at 32%.

B5: GDHwt: wild-type glutamate dehydrogenase of E. coli, N-terminal 6×His-tag (protein, listed as Escherichia coli)
chain: MDQTYSLESFLNHVQKRDPNQTEFAQAVREVMTTLWPFLEQNPKYRQMSLLERLVEPERVIQFRVVWVDDRNQIQVNRAWRVQFSSAIGPYKGGMRFHPSVNLSILKFLGFEQTFKNALTTLPMGGGKGGSDFDPKGKSEGEVMRFCQALMTELYRHLGADTDVPAGDIGVGGREVGFMAGMMKKLSNNTACVFTGKGLSFGGSLIRPEATGYGLVYFTEAMLKRHGMGFEGMRVSVSGSGNVAQYAIEKAMEFGARVITASDSSGTVVDESGFTKEKLARLIEIKASRDGRVADYAKEFGLVYLEGQQPWSLPVDIALPCATQNELDVDAAHQLIANGVKAVAEGANMPTTIEATELFQQAGVLFAPGKAANAGGVATSGLEMAQNAARLGWKAEKVDARLHHIMLDIHHACVEHGGEGEQTNYVQGANIAGFVKVADAMLAQGVI
modifications: N-terminal 6xHis tag
notes: wild-type glutamate dehydrogenase of E. coli, N-terminal 6×His-tag
As to B5, the “kcat towards 2-ketobutyrate” value in data set [1] came out at 47.2 s⁻¹. In addition, the Km in data set [1] (read-out: Km towards 2-ketobutyrate) turned out to be 35.4 mM.

As a reminder, the Km is the concentration of substrate that gives half-maximal velocity.

For the origin of these results see patent publication US9550980B2, “Composition and methods for the production of L-homoalanine” (The Regents of the University of California, priority 2010, dated 2017).
